{
  "source": "patent US20250257128A1",
  "key": {"[1]": {"biological_target": "human CD47 (human) (UniProt Q08722)", "sequence (Q08722 19-323)": "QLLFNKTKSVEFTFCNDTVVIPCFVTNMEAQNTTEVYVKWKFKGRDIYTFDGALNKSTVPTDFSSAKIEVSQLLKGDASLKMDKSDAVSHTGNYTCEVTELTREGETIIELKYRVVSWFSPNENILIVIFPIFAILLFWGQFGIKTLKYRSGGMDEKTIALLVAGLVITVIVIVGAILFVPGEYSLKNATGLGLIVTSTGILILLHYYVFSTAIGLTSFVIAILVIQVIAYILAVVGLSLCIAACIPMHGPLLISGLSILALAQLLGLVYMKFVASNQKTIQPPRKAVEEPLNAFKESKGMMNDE", "assay": "flow cytometry on human red blood cells, antibody at 15 µg/mL (negative control)"}, "[2]": {"biological_target": "human CD47 (human) (UniProt Q08722)", "assay": "flow cytometry on human red blood cells, antibody at 150 µg/mL (negative control)"}},
  "data": [
    {"substance": "Human IgG1 isotype negative control (antibody)", "values": [
      {"measurement": "MFI", "setting": "[1]", "value": 303, "unit": "MFI"},
      {"measurement": "MFI", "setting": "[2]", "value": 901, "unit": "MFI"}
    ]}
  ]
}
